Data taken from publication PMC3930596, “Insights into the Initiation of JC Virus DNA Replication Derived from the Crystal Structure of the T-Antigen Origin Binding Domain”.

How the values were obtained:
[1] = target: JCV T-antigen origin-binding domain (residues 132-261) with tartrate-modified Lys168 (crystal form 3) (JC virus); test: crystal structure; crystal form 3, space group P4_(1), 1.32 Å, one molecule in the asymmetric unit; 0.19 M sodium tartrate, 19% PEG 3350, 4 C; contacts with symmetry mates
[2] = target: JCV T-antigen origin-binding domain (OBD; residues 132-261) (JC virus); test: crystal structure; crystal form 2, space group I4_(1), 2.6 Å; 0.1 M Tris pH 8.5, 0.2 M LiSO4, 30% PEG 4000, 4 C; contacts with symmetry mates
[3] = target: JCV T-antigen origin-binding domain (OBD; residues 132-261) (JC virus); test: crystal structure; crystal form 1, space group C2, 1.64 Å, two molecules in the asymmetric unit; 0.1 M sodium citrate pH 5.6, 30% PEG 3350, 18 C; interfaces analysed with PISA
[4] = target: T1, JCV T-antigen origin-binding domain (OBD) (JC virus (JCV), UniProt P03072 132-261); test: ITC; average of four titrations; titration shown in Fig. 4A ~278 nM; N = 4 OBDs per duplex; ITC (VP-ITC): 10 mM sodium phosphate pH 7.0, 50 mM NaCl; temperature not stated; OBD in syringe (~80 uM for Site II, 40 uM for Site I), DNA 1.5 uM / 1.0 uM; details: protein: recombinant; tags: N-terminal GST removed by thrombin; chain copies: 4; blunt
T1 sequence: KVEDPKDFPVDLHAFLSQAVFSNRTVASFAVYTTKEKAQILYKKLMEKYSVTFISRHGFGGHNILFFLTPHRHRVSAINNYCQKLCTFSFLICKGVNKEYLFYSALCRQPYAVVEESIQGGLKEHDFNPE

[5] = target: T1, JCV T-antigen origin-binding domain …; test: ITC; ITC (VP-ITC): 10 mM sodium phosphate pH 7.0, 50 mM NaCl; temperature not stated; OBD in syringe (~80 uM for Site II, 40 uM for Site I), DNA 1.5 uM / 1.0 uM; details: protein: recombinant; tags: N-terminal GST removed by thrombin; chain copies: 4; blunt

Molecule “JCV T-antigen origin-binding domain (residues 132-261) with tartrate-modified Lys168 (crystal form 3) (domain or fragment)” has a stoichiometry N [1] of 4.

“JCV T-antigen origin-binding domain (OBD; residues 132-261) (domain or fragment)” was tested, and the stoichiometry N [2] was 4 and the stoichiometry N [3] was 4.

B1: JCV Site II 33 bp (dsDNA)
DNA 1: TACAGGAGGCCGAGGCCGCCTCCGCCTCCAAGC
DNA 2: GCTTGGAGGCGGAGGCGGCCTCGGCCTCCTGTA
With B1 the Kd [4] was 299 nM.

B2: JCV Site I 28 bp (dsDNA)
DNA 1: GCGTGGAGGCTTTTTAGGAGGCCAGGGA
DNA 2: TCCCTGGCCTCCTAAAAAGCCTCCACGC
In the case of B2, the Kd [5] is reported as 18.3 nM.
